# How the values were obtained:
# [1] = biological target: recombinant human PD-L1(B7-H1)-His-tag protein (catalog #9049-B7, R&D systems) (human) (UniProt Q9NZQ7); assay: FRET competitive inhibition of PD-L1 binding to PD-1
# [2] = biological target: recombinant human PD-L1(B7-H1)-His-tag protein (catalog #9049-B7, R&D systems) (human) (UniProt Q9NZQ7); assay: FRET competitive inhibition of PD-L1-His-tag binding to PD-1-Ig, Cheng-Prusoff
# [3] = biological target: human PD-L1 on cells (CHO cells stably expressing human PD-L1; MDAMB231, HCC827, H226, doxycycline-treated A549-iPDL1 cells and their tumors) (human) (UniProt Q9NZQ7); assay: flow cytometry on Cho-hPD-L1 and MDAMB231 cells; competitors Cy5-AtzMab, Cy5-AveMab, Cy5-DurMab (ends not tied to one mAb)
# Sequence of human PD-L1 on cells (CHO cells stably expressing human PD-L1; MDAMB231, HCC827, H226, doxycycline-treated A549-iPDL1 cells and their tumors) (human) (Q9NZQ7 19-290): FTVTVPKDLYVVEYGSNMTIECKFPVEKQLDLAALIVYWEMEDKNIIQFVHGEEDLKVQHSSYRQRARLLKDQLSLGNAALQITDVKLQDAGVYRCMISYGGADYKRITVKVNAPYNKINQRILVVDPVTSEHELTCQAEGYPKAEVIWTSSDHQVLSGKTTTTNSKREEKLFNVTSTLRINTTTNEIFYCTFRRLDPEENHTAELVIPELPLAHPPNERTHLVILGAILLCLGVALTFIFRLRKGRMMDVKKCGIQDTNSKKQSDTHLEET
# [4] = biological target: recombinant human PD-L1(B7-H1)-His-tag protein (catalog #9049-B7, R&D systems) (human) (UniProt Q9NZQ7); assay: FRET competitive inhibition of PD-L1-His-tag (80 nM) binding to PD-1-Ig (20 nM)
# [5] = biological target: human PD-L1 on cells (CHO cells stably expressing human PD-L1; MDAMB231, HCC827, H226, doxycycline-treated A549-iPDL1 cells and their tumors) (human) (UniProt Q9NZQ7); assay: hPD-L1 cells, 1 uM blocking dose of WL12; competitor [^64Cu]WL12
# [6] = biological target: human PD-L1 on cells (CHO cells stably expressing human PD-L1; MDAMB231, HCC827, H226, doxycycline-treated A549-iPDL1 cells and their tumors) (human) (UniProt Q9NZQ7); assay: flow cytometry on hPD-L1 cells, serial dilutions of WL12; competitor BD-MIH1-PE
# [7] = biological target: human PD-L1 on cells (CHO cells stably expressing human PD-L1; MDAMB231, HCC827, H226, doxycycline-treated A549-iPDL1 cells and their tumors) (human) (UniProt Q9NZQ7); assay: cell-based or functional assay
# [8] = biological target: human PD-L1 on cells (CHO cells stably expressing human PD-L1; MDAMB231, HCC827, H226, doxycycline-treated A549-iPDL1 cells and their tumors) (human) (UniProt Q9NZQ7); assay: flow cytometry on hPD-L1 cells, serial dilutions of WL12; competitor Cy5-AtzMab
# [9] = biological target: human PD-L1 on cells (CHO cells stably expressing human PD-L1; MDAMB231, HCC827, H226, doxycycline-treated A549-iPDL1 cells and their tumors) (human) (UniProt Q9NZQ7); assay: flow cytometry, in vitro binding; competitor Cy5-conjugated AtzMab
# [10] = biological target: human PD-L1 on cells (CHO cells stably expressing human PD-L1; MDAMB231, HCC827, H226, doxycycline-treated A549-iPDL1 cells and their tumors) (human) (UniProt Q9NZQ7); assay: radiotracer on hPD-L1 cells, 1 h, gamma counting
# Sequence of recombinant human PD-L1(B7-H1)-His-tag protein (catalog #9049-B7, R&D systems) (human) (Q9NZQ7 19-239 limits assumed): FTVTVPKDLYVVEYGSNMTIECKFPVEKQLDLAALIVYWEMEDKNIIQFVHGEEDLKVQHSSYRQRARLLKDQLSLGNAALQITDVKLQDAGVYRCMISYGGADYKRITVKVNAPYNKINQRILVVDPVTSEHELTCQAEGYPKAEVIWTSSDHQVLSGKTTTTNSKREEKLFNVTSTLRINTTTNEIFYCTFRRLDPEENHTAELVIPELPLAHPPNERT
IC50 [1],Ki [2],inhibitory concentrations [3],IC50 [4],reduction in bound [^64Cu]WL12 [5],IC50 [6],"reduction in % ID/g of [^64Cu]WL12 in hPD-L1 tumors on co-injection of excess WL12 (50 ug, 2 mg/kg), 2 h [7]",IC50 [8],IC50 [9],uptake of the incubated dose [10],accumulation of [^64Cu]WL12 in A549-iPDL1 tumors after 72 h doxycycline against A549 control tumors [7],"radioactivity uptake in hPD-L1 tumors at 1 h, percentage of injected dose/g [7]",Substance
22 nM,1.1 nM,5 nM,20.3 nM,> 95%,37.8 nM,> 75%,2.5 nM,37.8 nM,,,,WL12 (unmodified PD-L1 binding peptide)
2.9 nM,1.38 nM,,2.97 nM,,,,,,,,,WL12-Cu^2+ complex (copper complex of WL12D) (peptide)
,,,,,,,,,> 50%,65%,14.9 % ID/g,[^64Cu]WL12 (peptide)
23 nM,10.4 nM,,22.2 nM,,,,,,,,,WL12-DOTAGA (WL12D) (peptide)

# From US20190314531A1
